In paper PMC9503459, “Antifungal Activity, Structural Stability, and Immunomodulatory Effects on Human Immune Cells of Defensin from the Lentil Lens culinaris” (Membranes, 2022):
No end group written: not given here.

Tests used:
[1] = tested on: proteolytic enzymes of Candida albicans; experiment: Sensitivity to proteolytic enzymes of Candida albicans (cell lysate, SDS-PAGE); format: in vitro ADME; details: for stability to proteolysis by yeast: up to 72 h
Protocol: (§1) For study of Lc-def sensitivity to the clinical isolate of C. albicans, lysates of yeast cells in different concentration and pH were used basically as previously described for rhesus macaque θ-defensin 1 [22]. Cells were inoculated onto modified YPD medium and grown at 37 ℃ for 48 h before reaching the stationary phase of growth. Cells were harvested by centrifugation, washed two times in sterile phosphate buffered saline (PBS), pH 7.2, or sterile 40 mM sodium acetate, pH 4.0, and resuspended in the corresponding buffer to final concentrations of 1 × 10^9 cells/mL or 1 × 10^3 cells/mL. Two freeze-thaw cycles in liquid nitrogen were used for cell disruption, and supernatants were collected following centrifugation. Supernatants (12.5 μL) were mixed with water solutions (37.5 μL) of Lc-def, α-casein, Psd1, or LL-37 in concentration of 0.67 mg/mL and incubated at 37 ℃ for 72 or 24 h in the case of high or low cell concentration, respectively. To study the possible influence of Lc-def and Psd1 on the degradation process, supernatants (12.5 μL) were mixed with both α-casein or LL-37 in concentration of 1 mg/mL (25 μL) and Lc-def or Psd1 in concentration of 2 mg/mL (12.5 μL). As negative controls, α-casein and peptides were mixed with buffers as well as supernatants were mixed with water without the proteins. The samples were mixed with sample buffer without β-mercaptoethanol (BME), heated at 100 ℃ for 2 min, and analyzed by sodium dodecyl sulfate polyacrylamide gel electrophoresis (SDS-PAGE). Some independent experiments were performed in each case.

[2] = tested on: proteolytic enzymes of Candida albicans; experiment: Influence of defensins on degradation of proteins by C. albicans lysate; format: biochemical; details: C. albicans lysate 10^3 cells/mL, pH 7.2, up to 24 h, SDS-PAGE
Protocol: as §1

[3] = CD spectroscopy, secondary structure at different pH and temperature; format: physicochemical; details: far-UV CD, 30 µM, 10 mM phosphate buffer pH 7.4
Protocol: Circular dichroism spectra were recorded at different temperatures using a J-810 spectropolarimeter (Jasco, Hachioji, Tokyo, Japan) in a 0.1 cm path length quartz cell (Hellma GmbH and Co. KG, Mullheim, Germany) in the 190–250 nm range 0.2 using solutions of Lc-def in 10 mM phosphate buffer, pH 7.4, or 150 mM sodium chloride, pH 2.5, simulated gastric fluid, at a concentration of 30 µM. Lysolipids were added at final concentration of 1 mM.

C. albicans = details: at 20 μM; cited from earlier work
Protocol: Here, we investigated an ability of Lc-def to inhibit the growth of clinical isolates of Candida albicans, C. krusei, and C. glabrata. An antifungal activity against Candida species has been shown previously for some plant defensins. For example, the pea defensin Psd1 at the concentration of 20 μM and PvD1 from the common bean at 18.4 μ ...

[4] = tested on: pepsin, trypsin, α-chymotrypsin; experiment: Simulated gastrointestinal digestion in vitro; format: in vitro ADME, porcine pepsin and trypsin, bovine α-chymotrypsin; details: pepsin, 0.1 M HCl pH 2.0 (data not shown)
Description: Digestive enzymes (porcine pepsin and trypsin, bovine α-chymotrypsin), model protein substrate bovine α-casein, and secondary anti-rabbit IgG polyclonal goat antibodies conjugated to HRP and 3,3′,5,5′-tetramethylbenzidine (TMB) substrates were purchased from Sigma-Aldrich (St. Louis, MO, USA). Synthetic lysophospholipids (lyso-palmitoyl phosphatidylcholine (LPPC), lyso-palmitoyl phosphatidylglycerol (LPPG)) were purchased from Avanti Polar Lipids (Alabaster, AL, USA).
Sensitivity of Lc-def to digestive enzymes was examined by simulation of its gastrointestinal digestion in vitro. Gastric digestion was performed for 2 h, using 50 ng of pepsin per 1 μg of preheated at 100 °C for 30 min and intact Lc-def in 0.1 M HCl, pH 2.0. For duodenal digestion, the pH of the mixture resulting from gastric digestion was adjusted to 8.0 by addition of ammonium bicarbonate. The obtained mixture was incubated for 24 h at 37 °C with 2.5 ng of trypsin and 10 ng of α-chymotrypsin per 1 μg of the defensin. The degree of proteolysis was monitored by SDS-PAGE and RP-HPLC. Gel analysis was performed using Gel Doc XR^+ imaging system (Bio-Rad, Hercules, CA, USA) and Image Lab Software v.6.1.0 (Bio-Rad, Hercules, CA, USA). Some independent experiments were performed in each case. The experiment with α-casein was carried out for comparison.

[5] = C. albicans lysate 10^9 cells/mL, 40 mM sodium acetate pH 4.0, 37 °C, SDS-PAGE

Molecule | stability to proteolysis by yeast [1, 5] | stability to proteolysis by yeast ([1]; C. albicans lysate 10^9 cells/mL, PBS pH 7.2, 37 °C, SDS-PAGE, densitometry, immunoblotting) | influence on the rate of α-casein degradation [2] | Random, % [3] | α-Helix, % [3] | β-Sheet, % [3] | β-Turn, % [3] | growth inhibition of C. albicans (C. albicans) | remaining at 24 h, 0.5 mg/mL ([1]; Candida albicans cell lysate supernatant (1 × 10^3 cells/mL), C. albicans lysate 10^3 cells/mL, pH 7.2, 37 °C, 24 h, densitometric gel analysis, read-out: intact peptide present in the hydrolysate) | time after which the protein band was absent ([1]; C. albicans lysate 10^3 cells/mL, pH 7.2, 37 °C, SDS-PAGE) | time to complete degradation ([1]; C. albicans lysate 10^9 cells/mL, pH 7.2, 37 °C, SDS-PAGE) | time to almost complete degradation by pepsin [4]
Psd1: pea Pisum sativum defensin (UNIPROT P81929), recombinant (KTCEHLADTYRGVCFTNASCDDHCKNKAHLISGTCHNWKCFCTQNC; ends and bridges not checked; cysteine pairing not given here; UniProt P81929 1-46, looked up) [reference compound] | stable | stable | but not Psd1 decreased the rate of α-casein degradation | 30.7% | 14.8% | 31.8% | 22.8% | 100% | – | – | – | –
CC[C@H](C)[C@H](NC(=O)[C@H](CCCCN)NC(=O)[C@H](CCC(=O)O)NC(=O)[C@H](CCCCN)NC(=O)[C@H](CO)NC(=O)[C@H](CCCCN)NC(=O)[C@H](CCCNC(=N)N)NC(=O)[C@H](Cc1ccccc1)NC(=O)[C@H](Cc1ccccc1)NC(=O)[C@H](CC(=O)O)NC(=O)CNC(=O)[C@H](CC(C)C)NC(=O)[C@@H](N)CC(C)C)C(=O)NCC(=O)N[C@@H](CCCCN)C(=O)N[C@@H](CCC(=O)O)C(=O)N[C@@H](Cc1ccccc1)C(=O)N[C@@H](CCCCN)C(=O)N[C@@H](CCCNC(=N)N)C(=O)N[C@H](C(=O)N[C@H](C(=O)N[C@@H](CCC(N)=O)C(=O)N[C@@H](CCCNC(=N)N)C(=O)N[C@H](C(=O)N[C@@H](CCCCN)C(=O)N[C@@H](CC(=O)O)C(=O)N[C@@H](Cc1ccccc1)C(=O)N[C@@H](CC(C)C)C(=O)N[C@@H](CCCNC(=N)N)C(=O)N[C@@H](CC(N)=O)C(=O)N[C@@H](CC(C)C)C(=O)N[C@H](C(=O)N1CCC[C@H]1C(=O)N[C@@H](CCCNC(=N)N)C(=O)N[C@H](C(=O)N[C@@H](CCC(=O)O)C(=O)N[C@@H](CO)C(=O)O)[C@@H](C)O)C(C)C)[C@@H](C)CC)C(C)C)[C@@H](C)CC [LL-37, reference compound] | – | – | – | – | – | – | – | – | ~30% | – | – | –
α-casein: model protein substrate bovine α-casein (protein, UniProt P02662 16-214, looked up) Alpha-S1-casein: RPKHPIKHQGLPQEVLNENLLRFFVAPFPEVFGKEKVNELSKDIGSESTEDQAMEDIKQMEAESISSSEEIVPNSVEQKHIQKEDVPSERYLGYLEQLLRLKKYKVPQLEIVPNSAEERLHSMKEGIHAQQKEPMIGVNQELAYFYPELFRQFYQLDAYPSGAWYYVPLGTQYTDAPSFSDIPNPIGSENSEKTTMPLW | slow | – | – | – | – | – | – | – | – | ≤ 8 h | ≤ 2 h | ≤ 5 min
